Source: US20240280570A1 (KING ABDULLAH UNIVERSITY OF SCIENCE AND TECHNOLOGY, published 2024)

Target: T1, FRB-24-mCherry-Wp3-TwinStrep
T1 construct: also called Negative control (mCherry); FRB-mCherry fusion
Experiment: OECT transfer curves (ID against VG), PEDOT:PSS channel

B1: GFPnanobody-8aa-SpyCatcher-3C cleavage site-His10 (VHH)
VHH: QVQLVESGGALVQPGGSLRLSCAASGFPVNRYSMRWYRQAPGKEREWVAGMSSAGDRSSYEDSVKGRFTISRDDARNTVYLQMNSLKPEDTAVYYCNVNVGFEYWGQGTQVTVSS
notes: also called anti-GFP nanobody; GFP nanobody-SpyCatcher
binding result: no binding (tested: 2 x 10^-8 M)
